Source: patent publication US20170260249A1 (IMMATICS BIOTECHNOLOGIES, published 2017)

Biological target: HLA-A*02:01 (peptide-receptive MHC class I molecule, heavy chain with beta-2-microglobulin) (human)
Assay: UV-ligand exchange, anti-b2m ELISA; peptide exchange yield grade (>10% = +; >20% = ++; >50 = +++; >75% = ++++)
Excerpt: Candidate peptides for T cell based therapies according to the present invention were further tested for their MHC binding capacity (affinity). The individual peptide-MHC complexes were produced by UV-ligand exchange, where a UV-sensitive peptide is cleaved upon UV-irradiation, and exchanged with the peptide of interest as analyzed. Only peptide candidates that can effectively bind and stabilize the peptide-receptive MHC molecules prevent dissociation of the MHC complexes. To determine the yield of the exchange reaction, an ELISA was performed based on the detection of the light chain (β2m) of stabilized MHC complexes. The assay was performed as generally described in Rodenko et al. (Rodenko et al., 2006).
96 well MAXISorp plates (NUNC) were coated over night with 2 ug/ml streptavidin in PBS at room temperature, washed 4× and blocked for 1 h at 37° C. in 2% BSA containing blocking buffer. Refolded HLA-A*02:01/MLA-001 monomers served as standards, covering the range of 15-500 ng/ml. Peptide-MHC monomers of the UV-exchange reaction were diluted 100 fold in blocking buffer. Samples were incubated for 1 h at 37° C., washed four times, incubated with 2 ug/ml HRP conjugated anti-β2m for 1 h at 37° C., washed again and detected with TMB solution that is stopped with […]. Absorption was measured at 450 nm. Candidate peptides that show a high exchange yield (preferably higher than 50%, most preferred higher than 75%) are generally preferred for a generation and production of antibodies or fragments thereof, and/or T cell receptors or fragments thereof, as they show sufficient avidity to the MHC molecules and prevent dissociation of the MHC complexes.

Binder	peptide exchange yield [%]
NMDDVIYYV (synthetic peptide; source gene RNF145) [NMDDVIYYV (SEQ ID NO: 46)]	50 to 75
GLDGATYTV (synthetic peptide; source gene SEMA4C) [GLDGATYTV (SEQ ID NO: 3)]	50 to 75
VLGPEGQLV (synthetic peptide; source gene GLYATL2) [VLGPEGQLV (SEQ ID NO: 21)]	50 to 75
ALAPSEGVQAA (synthetic peptide; source gene MSX1) [ALAPSEGVQAA (SEQ ID NO: 12)]	> 75
SILSLLIKL (synthetic peptide; source gene UBR3) [SILSLLIKL (SEQ ID NO: 7)]	20 to 50
VIANEIEKV (synthetic peptide; source gene APOL4) [VIANEIEKV (SEQ ID NO: 43)]	50 to 75
GLDEAIRKV (synthetic peptide; source gene GLYATL2) [GLDEAIRKV (SEQ ID NO: 28)]	50 to 75
VLVSSVLGV (synthetic peptide; source gene SIGIRR) [VLVSSVLGV (SEQ ID NO: 22)]	50 to 75
SVMELLQGV (synthetic peptide; source gene TRIM5) [SVMELLQGV (SEQ ID NO: 8)]	> 75
IGIGPVLNI (synthetic peptide; source gene TMLHE) [IGIGPVLNI (SEQ ID NO: 29)]	10 to 20
RLDIQGTGQLL (synthetic peptide; source gene PIGR) [RLDIQGTGQLL (SEQ ID NO: 4)]	50 to 75
VLLDIFTGV (synthetic peptide; source gene LIG3) [VLLDIFTGV (SEQ ID NO: 2)]	> 75
VLLATVTEL (synthetic peptide; source gene SLC35E1) [VLLATVTEL (SEQ ID NO: 37)]	50 to 75
KLNSSIQYV (synthetic peptide; source gene PKHD1L1) [KLNSSIQYV (SEQ ID NO: 16)]	50 to 75
ALLTAVTNV (synthetic peptide; source gene LEMD2) [ALLTAVTNV (SEQ ID NO: 31)]	50 to 75
YLETMNITL (synthetic peptide; source gene PGM2L1) [YLETMNITL (SEQ ID NO: 19)]	50 to 75
TLLDRVAVI (synthetic peptide; source gene FRG1B) [TLLDRVAVI (SEQ ID NO: 30)]	50 to 75
GLLSVELRV (synthetic peptide; source gene DCHS2) [GLLSVELRV (SEQ ID NO: 15)]	> 75
GLVEQLYDL (synthetic peptide; source gene NOC2L) [GLVEQLYDL (SEQ ID NO: 47)]	50 to 75
TLLPTLYEI (synthetic peptide; source gene RNF180) [TLLPTLYEI (SEQ ID NO: 35)]	50 to 75
TVPPVFVSV (synthetic peptide; source gene KCNMA1) [TVPPVFVSV (SEQ ID NO: 51)]	50 to 75
YIDDIFSGV (synthetic peptide; source gene TEX9) [YIDDIFSGV (SEQ ID NO: 41)]	> 75
VMHDSSFSV (synthetic peptide; source gene ADNP2) [VMHDSSFSV (SEQ ID NO: 53)]	> 75
FLSGYYVTL (synthetic peptide; source gene TMEM101) [FLSGYYVTL (SEQ ID NO: 42)]	> 75
SMTTNLDLKV (synthetic peptide; source gene TMEM202) [SMTTNLDLKV (SEQ ID NO: 33)]	20 to 50
ILDAQTAFV (synthetic peptide; source gene ABCC1) [ILDAQTAFV (SEQ ID NO: 24)]	50 to 75
AIAGRLLGV (synthetic peptide; source gene CLCN5) [AIAGRLLGV (SEQ ID NO: 34)]	> 75

Binder	peptide exchange yield [%]
GLIENTYQL (synthetic peptide; source gene RNF175) [GLIENTYQL (SEQ ID NO: 32)]	50 to 75
FLNGLEILL (synthetic peptide; source gene MDN1) [FLNGLEILL (SEQ ID NO: 44)]	> 75
ALDPIIHGL (synthetic peptide; source gene PTPRG) [ALDPIIHGL (SEQ ID NO: 11)]	> 75
SLFDEVRQI (synthetic peptide; source gene STX18) [SLFDEVRQI (SEQ ID NO: 5)]	> 75
SLLSELVEA (synthetic peptide; source gene KLHDC5) [SLLSELVEA (SEQ ID NO: 6)]	> 75
ALLGFVTDL (synthetic peptide; source gene ATP2B4) [ALLGFVTDL (SEQ ID NO: 20)]	> 75
SLYPGTETM (synthetic peptide; source gene SVIL) [SLYPGTETM (SEQ ID NO: 9)]	50 to 75
ALDGKIYEL (synthetic peptide; source gene ARHGAP5) [ALDGKIYEL (SEQ ID NO: 39)]	50 to 75
ILLELFTHV (synthetic peptide; source genes FBXO6, FBXO44) [ILLELFTHV (SEQ ID NO: 25)]	> 75
ILAETQPEL (synthetic peptide; source gene STX18) [ILAETQPEL (SEQ ID NO: 48)]	50 to 75
KLWEESTAQV (synthetic peptide; source gene C1orf173) [KLWEESTAQV (SEQ ID NO: 17)]	50 to 75
VLLHVSVLL (synthetic peptide; source gene ZDHHC24) [VLLHVSVLL (SEQ ID NO: 45)]	20 to 50
ALLELLHEL (synthetic peptide; source gene LEMD2) [ALLELLHEL (SEQ ID NO: 49)]	> 75
KLLDNLHDL (synthetic peptide; source gene PGR) [KLLDNLHDL (SEQ ID NO: 1)]	> 75
RILDIDIPLSV (synthetic peptide; source gene TFCP2L1) [RILDIDIPLSV (SEQ ID NO: 38)]	50 to 75
TLSDVVVGL (synthetic peptide; source gene ELP4) [TLSDVVVGL (SEQ ID NO: 54)]	50 to 75
GLGPNLVGV (synthetic peptide; source genes SLC25A36, SLC25A33) [GLGPNLVGV (SEQ ID NO: 23)]	> 75
TLSTVIATV (synthetic peptide; source gene ATN1) [TLSTVIATV (SEQ ID NO: 50)]	> 75
SLLSDIIAL (synthetic peptide; source gene PIGQ) [SLLSDIIAL (SEQ ID NO: 36)]	50 to 75
ALISEKLETL (synthetic peptide; source gene DNAJC10) [ALISEKLETL (SEQ ID NO: 52)]	50 to 75
GLLGGVIMMV (synthetic peptide; source gene SLC39A7) [GLLGGVIMMV (SEQ ID NO: 40)]	> 75
VLNPETTVV (synthetic peptide; source gene PAPSS1) [VLNPETTVV (SEQ ID NO: 27)]	50 to 75
SVLAGVVGV (synthetic peptide; source gene GUCY1A2) [SVLAGVVGV (SEQ ID NO: 26)]	> 75
ALQNKVVAL (synthetic peptide; source gene NXNL2) [ALQNKVVAL (SEQ ID NO: 13)]	50 to 75
AILDVVVNL (synthetic peptide; source gene RFX3) [AILDVVVNL (SEQ ID NO: 10)]	> 75
FLVDSLISA (synthetic peptide; source gene HOXD10) [FLVDSLISA (SEQ ID NO: 14)]	> 75
